Experimental data reported in paper PMC2777442 (Nucleic Acids Research, 2009).
Where two headings read alike, the source gives them in different places.

How the values were obtained:
[1] = biological target: T1, TFAM (mature, MTS removed) (Homo sapiens, UniProt Q00059 50-246); assay: fluorescence anisotropy
T1 sequence: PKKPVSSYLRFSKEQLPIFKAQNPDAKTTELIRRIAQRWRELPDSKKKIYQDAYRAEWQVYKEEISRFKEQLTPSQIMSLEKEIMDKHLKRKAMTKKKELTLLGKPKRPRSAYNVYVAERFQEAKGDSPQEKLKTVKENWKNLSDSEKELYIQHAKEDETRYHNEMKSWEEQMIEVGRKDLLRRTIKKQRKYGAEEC

[2] = biological target: the molecule itself; assay: AUC
[3] = biological target: T1, TFAM (mature, MTS removed); assay: fluorescence anisotropy; remark: listed apart in the source

B1: Normal-DNA-S (dsDNA)
DNA 1: CGATATTGAGCC
DNA 2: GGCTCAATATCG
apparent K (half saturation) [1]: 413 ± 59 nM

B2: Human mitochondrial transcription factor A (TFAM), residues 50-246 (natural protein, UniProt Q00059-1 50-246, looked up)
chain: PKKPVSSYLRFSKEQLPIFKAQNPDAKTTELIRRIAQRWRELPDSKKKIYQDAYRAEWQVYKEEISRFKEQLTPSQIMSLEKEIMDKHLKRKAMTKKKELTLLGKPKRPRSAYNVYVAERFQEAKGDSPQEKLKTVKENWKNLSDSEKELYIQHAKEDETRYHNEMKSWEEQMIEVGRKDLLRRTIKKQRKYGAEEC
stoichiometry N [2]: 2

B3: Bulged-DNA-S (dsDNA)
DNA 1: CGATATTAAGAGCC
DNA 2: GGCTCAATATCG
apparent K (half saturation) [3]: 164 ± 17 nM
